According to the supplement of paper PMC10567573:

B1: NCF4 (parent)
chain: FVKILKDFPEEDDPTNWLRCYYYE
B2: PPP2R2B (parent)
chain: PSNRSFFSEIISSISDVKFSHSGR

Variants of: B1
Test: protein stability index of a GFP-peptide fusion (GPS, HEK-293T) (PSI 1-6); higher = more stable
Settings: c terminus: a fixed tail appended
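Further: lentivirally expressed fusions sorted by FACS into six bins by GFP to DsRed ratio, PSI derived from sequencing read proportions per bin multiplied by bin number.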

Protein stability index, by site and new letter:
Y21: G 1.06; V 2.53; L 2.62; S 1.8; E 1.41; M 1.75; D 2.02; A 1.1; F 1.91; I 2.44; W 1.89; K 2.47; C 1.61; H 2.55; N 3.57
C20: K 2.32; E 2.12; Y 1.9; Q 2.03; F 2.03; L 1.69; H 1.84; N 2.74; G 2.06
D13: R 1.66; M 3.83; G 1.04; F 3.57; Y 2.81; C 1.96; V 1.53; T 2.72; P 1.4; H 2.54; I 1.29
L5: H 3.08; A 1.02; E 1.96; I 1.6; W 1.06; N 1.68; Y 2.23; F 1.86; D 2.1
K3: A 2.19; H 1.43; C 1.26; Y 1.01; S 2.32; E 2; T 2.48; R 1.17
Y23: M 2.06; W 1.78; P 3.56; C 1.49; G 1.96; T 1.57; I 1.5; L 1.39; D 1.57; S 1.83; F 2.27; H 1.51; V 1.3; R 1.96
E24: R 1.51; D 1.39; S 1.98; W 1.6; L 2.95; K 1.99; T 1.23; P 2.12; I 2.39; Y 1.47; N 1.5; F 2.3; Q 2.5; V 2.32; H 2.4
F1: W 3.29; H 2.7; M 2.11; V 2.21; S 2.55; A 1.99; K 2.68; C 1.46; T 2.6; P 2.05
T15: I 1.44; V 1.9; N 2.03; Q 2.02; H 1.3; D 1.79; W 1.41; P 2.88; E 2.85; L 2.27; G 1.66
W17: K 1.93; Y 2.4; N 3.07; C 2.55; D 1.91; I 1.84; V 1.31; M 1.85; R 1.52; F 1.59; H 2.34; A 1.93; T 1.85; G 1.79
L18: S 2.15; G 1.92; V 2.34; D 1.94; N 1.86; P 2.42; K 1.55; H 1.66; A 2.1; E 2.13; Y 1.96; T 2.24
P9: F 1.1; V 2.21; I 1.65; W 1.27; D 1.85
P14: M 1.72; R 3.25; Q 1.47; V 1.84; T 1.11
V2: K 2.16; W 3.35; Y 2.08; C 1.95; A 1.88; E 3.02; T 2.4; M 1.96; R 2.38; H 1.57
I4: D 1.25; N 2.76; L 2.02; H 2.17; G 1.9; S 2.7; F 3.08; E 1.65
E10: A 1.47; T 2.6; M 2.93; I 3.14
K6: E 2.5; R 1.17; I 1.37; L 1.96; S 3.11; M 1.65; F 2.93
E11: Q 2.98; T 2.96; L 2.74; M 1.01; H 3.15; A 1.68
N16: Q 2.05; A 1.61; T 2.25; L 1.64; H 5.27; Y 2.46; D 1.7; I 1.75; K 1.81; R 1.47; S 1.53; G 1.61
D12: S 2.4; T 1.37; E 2.04; G 2.33; C 2.14; K 1.41; P 1.03; Y 2.35; Q 2.75; H 1.52
F8: C 1.25; S 2.92; L 1.15; P 1.68; H 3.3; Y 4.09; W 3.2; V 2.59
R19: A 2.27; S 1.79; L 1.78; N 2.83; W 1.78; G 1.09; P 2.54; Y 3.01
D7: Q 1.07; V 2.69; L 2.16; H 1.77; E 1; W 1.07; P 2.49; C 4.49
Y22: H 1.82; I 1.75; R 2.46; F 1.65; A 3.02; C 1.92; N 1.56; S 1.38; G 2.64; P 1.41; E 2.1; W 2.28; K 1.61

Variants of: B2
Test: as above
Settings: c terminus: a fixed tail appended

Protein stability index: each site, then its substitutions
P1: F 1.89; S 2.21; L 2.19; R 2.34; Q 2.4; C 2.05; T 2.39; Y 2.95; H 1.8; I 2.02; W 1.83; M 2.24; N 2.42; E 2.42; K 2.56; G 2.69; V 1.72; A 2.19; D 2.77
R4: F 1.81; G 3.02; I 2.79; V 2.47; A 2.64; D 3.49; C 1.83; M 2.1; L 2.41; H 2.1; N 2.2; Y 1.86; T 2.48; K 2.54; S 2.8; W 1.4; Q 2.66; E 2.81; P 2.8
S5: N 2.36; M 2.65; C 1.65; Q 2.42; D 2.46; F 2.54; R 2.64; W 2.1; P 2.88; A 2.31; Y 2.04; H 2.91; V 1.96; K 2.17; L 2.13; G 2.59; E 2.9; T 2.31; I 1.91
F6: H 2.99; E 3.22; D 3.53; G 3.31; I 2.81; A 3.05; C 2.38
N3: R 2.35; D 2.32; Q 2.4; E 2.03; W 2.75; A 2.27; M 2.13; K 2.12; I 1.83; T 2.14; V 1.74; C 2.19; S 2.57; L 2.17; Y 2.55; H 2.72; G 2.19; P 2.49; F 2.06
S2: G 2.66; F 1.99; M 2.17; C 2.4; W 2.18; D 2.85; N 2.29; E 2.55; V 2.29; L 1.95; I 2.02; H 2.44; Y 2.64; K 1.92; Q 2.45; R 2.61; P 2.65; T 2.44; A 2.54
